# B1: HA-tagged wildtype Drosophila CYRI [Drosophila] / GST-tagged constitutively active Rac1 [Drosophila] (parent)
# chain 1: MGKLLSLLSRDDSNCCAAKSYDVFLDFENAAPTETERAVYDEVERVLRESEVVLDEIQIYRGAGKEIREAIADPSPEVTAKAWAAVLPLVNKLKRCYEHSMELDKIVPKLLGQLVGGKLNPTQHLETQQALVKQLAEILEFVLKFDEYKMKTPAIQNDFSYYRRIVSRQRVDSTENMLVSTELANRMSLFYAHATPMLKVLSEATSKFVNDNADDVQNTTETLGTMAKVCLRMLENPKLLQQIEREDTKMLVLRVMVGLVILYDHVHPEGAFVRGAHVDVKGCVRLLQAQPAIKAEPLLNALRYTTKHLNGENTPKNIQRLLAA
# chain 2: not shown
# Variants of: B1
# Assay: GST pull-down, western blot quantification
# Details: with GST-tagged constitutively active Rac1 Q61L [Drosophila]; Signals normalized to loaded input (1% of the starting lysate material); three independent experiments; read off a plot
row,Variant,response (% bound input)
1,chain 1 R163D R164D,0.015

# Reference: PMC11519390
